We go through 125 sequences from the supplement of paper PMC9112550, “Optimization of the antimicrobial peptide Bac7 by deep mutational scanning” (BMC Biology, 2022).

This series deals with Escherichia coli TOP10. Put plainly: shrunken log2 fold change of peptide-encoding DNA abundance (4.5 h post-induction vs induction); higher = less antimicrobial activity (less host growth inhibition). Particulars: time post-induction: 4.5 h; library: site-saturation at positions 5, 18, 19, 20.
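Note: peptides expressed intracellularly from a pBAD plasmid library in pooled LB shake-flask culture, induced with 0.3% L-arabinose, DNA abundance read by NGS, three biological replicates, DESeq2 with apeglm shrinkage.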

RRIRGRPPRLPRPRPRPQSYPRP: the “shrunken log2 fold change” value was 0.113.

Turning to RRIRQRPPRLPRPRPRPSWNPRP, the “shrunken log2 fold change” value was -0.238.

RRIRRRPPRLPRPRPRPKIKPRP: the “shrunken log2 fold change” value was -0.0183.

As to RRIRCRPPRLPRPRPRPQIMPRP, the “shrunken log2 fold change” value is -0.352.

RRIRPRPPRLPRPRPRPNPEPRP: the “shrunken log2 fold change” value was -0.0226.

RRIRSRPPRLPRPRPRPARLPRP: the “shrunken log2 fold change” value is 0.0986.

For RRIRYRPPRLPRPRPRPKHAPRP, the “shrunken log2 fold change” value is -0.0577.

Take RRIRERPPRLPRPRPRPWIEPRP: the “shrunken log2 fold change” value is -0.206.

For RRIRCRPPRLPRPRPRPTEVPRP, the “shrunken log2 fold change” value is -0.135.

With RRIRERPPRLPRPRPRPARRPRP, the “shrunken log2 fold change” value was 0.539.

As for RRIRQRPPRLPRPRPRPASWPRP, the “shrunken log2 fold change” value is 0.00959.

In the case of RRIRGRPPRLPRPRPRPACPPRP, the “shrunken log2 fold change” value came out at 0.46.

For the sequence RRIRNRPPRLPRPRPRPFYCPRP, the “shrunken log2 fold change” value is -0.937.

In the case of RRIRDRPPRLPRPRPRPNVSPRP, the “shrunken log2 fold change” value was -0.00783.

Consider RRIRWRPPRLPRPRPRPTDMPRP, for which the “shrunken log2 fold change” value is 0.00348.

Regarding RRIRMRPPRLPRPRPRPATAPRP, the “shrunken log2 fold change” value amounted to 1.17.

Take RRIRNRPPRLPRPRPRPVRKPRP: the “shrunken log2 fold change” value was found to be 0.128.

In the case of RRIRRRPPRLPRPRPRPGPAPRP, the “shrunken log2 fold change” value was 0.562.

For the sequence RRIRTRPPRLPRPRPRPTCPPRP, the “shrunken log2 fold change” value was -0.0738.

Turning to RRIRVRPPRLPRPRPRPFYIPRP, the “shrunken log2 fold change” value was -0.457.

Regarding RRIRDRPPRLPRPRPRPYFLPRP, the “shrunken log2 fold change” value was -0.49.

For the sequence RRIRNRPPRLPRPRPRPLEDPRP, the “shrunken log2 fold change” value amounted to 0.0414.

For the sequence RRIRSRPPRLPRPRPRPIPAPRP, the “shrunken log2 fold change” value was -0.286.

For the sequence RRIRNRPPRLPRPRPRPKLCPRP, the “shrunken log2 fold change” value stood at 0.163.

On to RRIRLRPPRLPRPRPRPGVRPRP, for which the “shrunken log2 fold change” value stood at 0.256.

On to RRIRSRPPRLPRPRPRPLPWPRP, for which the “shrunken log2 fold change” value stood at 0.21.

On to RRIRFRPPRLPRPRPRPENIPRP, for which the “shrunken log2 fold change” value is 0.0737.

For RRIRTRPPRLPRPRPRPYSNPRP, the “shrunken log2 fold change” value was -0.941.

On to RRIRSRPPRLPRPRPRPAYHPRP, for which the “shrunken log2 fold change” value was -0.1.

Take RRIRCRPPRLPRPRPRPNIHPRP: the “shrunken log2 fold change” value is -0.607.

With RRIRERPPRLPRPRPRPPSSPRP, the “shrunken log2 fold change” value was determined as 0.0527.

Regarding RRIRSRPPRLPRPRPRPKEWPRP, the “shrunken log2 fold change” value is -0.0193.

For RRIRGRPPRLPRPRPRPGKKPRP, the “shrunken log2 fold change” value is -0.0917.

Regarding RRIRNRPPRLPRPRPRPMSRPRP, the “shrunken log2 fold change” value was -0.094.

Take RRIRSRPPRLPRPRPRPMFIPRP: the “shrunken log2 fold change” value is -0.212.

As for RRIRHRPPRLPRPRPRPDIEPRP, the “shrunken log2 fold change” value was 0.0242.

Take RRIRVRPPRLPRPRPRPEHSPRP: the “shrunken log2 fold change” value came out at 0.115.

On to RRIRDRPPRLPRPRPRPTHYPRP, for which the “shrunken log2 fold change” value was -0.103.

Consider RRIRQRPPRLPRPRPRPHVHPRP, for which the “shrunken log2 fold change” value was -0.124.

For the sequence RRIRKRPPRLPRPRPRPIHNPRP, the “shrunken log2 fold change” value is -0.0348.

RRIRERPPRLPRPRPRPSDFPRP: the “shrunken log2 fold change” value is -0.149.

As to RRIRQRPPRLPRPRPRPCCAPRP, the “shrunken log2 fold change” value came out at 0.0773.

As to RRIRVRPPRLPRPRPRPGPYPRP, the “shrunken log2 fold change” value was -0.0621.

On to RRIRQRPPRLPRPRPRPSQHPRP, for which the “shrunken log2 fold change” value is -0.356.

As for RRIRDRPPRLPRPRPRPLWAPRP, the “shrunken log2 fold change” value was 0.0876.

As to RRIRFRPPRLPRPRPRPKMSPRP, the “shrunken log2 fold change” value is -0.369.

For the sequence RRIRIRPPRLPRPRPRPDESPRP, the “shrunken log2 fold change” value is -0.172.

As to RRIRKRPPRLPRPRPRPPSVPRP, the “shrunken log2 fold change” value stood at 0.282.

For RRIRDRPPRLPRPRPRPEQHPRP, the “shrunken log2 fold change” value was 0.465.

Consider RRIRKRPPRLPRPRPRPWNTPRP, for which the “shrunken log2 fold change” value is -0.332.

As for RRIRVRPPRLPRPRPRPGWPPRP, the “shrunken log2 fold change” value worked out at 0.433.

Regarding RRIRIRPPRLPRPRPRPYQHPRP, the “shrunken log2 fold change” value is -0.136.

Consider RRIRMRPPRLPRPRPRPECFPRP, for which the “shrunken log2 fold change” value amounted to 1.35.

Consider RRIRNRPPRLPRPRPRPIPEPRP, for which the “shrunken log2 fold change” value is -0.147.

Turning to RRIRLRPPRLPRPRPRPTESPRP, the “shrunken log2 fold change” value worked out at 0.0515.

As to RRIRKRPPRLPRPRPRPKNKPRP, the “shrunken log2 fold change” value came to 0.287.

Consider RRIRDRPPRLPRPRPRPKSYPRP, for which the “shrunken log2 fold change” value stood at 0.0134.

On to RRIRVRPPRLPRPRPRPLFQPRP, for which the “shrunken log2 fold change” value was -0.0438.

In the case of RRIRYRPPRLPRPRPRPWIQPRP, the “shrunken log2 fold change” value was -0.101.

Turning to RRIRHRPPRLPRPRPRPSRIPRP, the “shrunken log2 fold change” value was 0.111.

Consider RRIRYRPPRLPRPRPRPYSFPRP, for which the “shrunken log2 fold change” value was -0.106.

For RRIRERPPRLPRPRPRPYICPRP, the “shrunken log2 fold change” value is -0.486.

With RRIRIRPPRLPRPRPRPSPTPRP, the “shrunken log2 fold change” value is -0.424.

Consider RRIRGRPPRLPRPRPRPEIRPRP, for which the “shrunken log2 fold change” value is 0.122.

Turning to RRIRDRPPRLPRPRPRPDKAPRP, the “shrunken log2 fold change” value was -0.00804.

On to RRIRIRPPRLPRPRPRPLIGPRP, for which the “shrunken log2 fold change” value is -0.0888.

As for RRIRKRPPRLPRPRPRPAMEPRP, the “shrunken log2 fold change” value turned out to be 0.0841.

RRIRLRPPRLPRPRPRPAIWPRP: the “shrunken log2 fold change” value was 0.016.

Turning to RRIRCRPPRLPRPRPRPPANPRP, the “shrunken log2 fold change” value stood at 0.521.

Turning to RRIRDRPPRLPRPRPRPAPNPRP, the “shrunken log2 fold change” value stood at 0.138.

In the case of RRIRHRPPRLPRPRPRPENRPRP, the “shrunken log2 fold change” value is 0.019.

On to RRIRNRPPRLPRPRPRPPKYPRP, for which the “shrunken log2 fold change” value was -0.349.

As to RRIRWRPPRLPRPRPRPGAHPRP, the “shrunken log2 fold change” value worked out at 0.32.

As for RRIRTRPPRLPRPRPRPHEEPRP, the “shrunken log2 fold change” value is 0.0127.

RRIRCRPPRLPRPRPRPHRQPRP: the “shrunken log2 fold change” value is -0.19.

With RRIRHRPPRLPRPRPRPIKLPRP, the “shrunken log2 fold change” value is -0.118.

As for RRIRHRPPRLPRPRPRPQRKPRP, the “shrunken log2 fold change” value was -0.191.

RRIRRRPPRLPRPRPRPIDNPRP: the “shrunken log2 fold change” value is -0.349.

As to RRIRSRPPRLPRPRPRPAKIPRP, the “shrunken log2 fold change” value is -0.0773.

In the case of RRIRARPPRLPRPRPRPTIWPRP, the “shrunken log2 fold change” value amounted to 0.206.

For the sequence RRIRPRPPRLPRPRPRPVIAPRP, the “shrunken log2 fold change” value was 0.0792.

For RRIRSRPPRLPRPRPRPECRPRP, the “shrunken log2 fold change” value worked out at 0.266.

On to RRIRQRPPRLPRPRPRPAPYPRP, for which the “shrunken log2 fold change” value was determined as 0.204.

In the case of RRIRFRPPRLPRPRPRPMKHPRP, the “shrunken log2 fold change” value was -0.149.

For the sequence RRIRRRPPRLPRPRPRPKAHPRP, the “shrunken log2 fold change” value turned out to be 0.515.

As to RRIRLRPPRLPRPRPRPVPKPRP, the “shrunken log2 fold change” value came out at 0.282.

On to RRIRNRPPRLPRPRPRPDERPRP, for which the “shrunken log2 fold change” value stood at 0.0408.

As for RRIRKRPPRLPRPRPRPRKCPRP, the “shrunken log2 fold change” value turned out to be 0.0121.

RRIRTRPPRLPRPRPRPKADPRP: the “shrunken log2 fold change” value is -0.0127.

On to RRIRGRPPRLPRPRPRPQLGPRP, for which the “shrunken log2 fold change” value came out at 0.649.

RRIRWRPPRLPRPRPRPDKTPRP: the “shrunken log2 fold change” value was -0.0185.

RRIRSRPPRLPRPRPRPYRGPRP: the “shrunken log2 fold change” value is -0.131.

On to RRIRCRPPRLPRPRPRPWLQPRP, for which the “shrunken log2 fold change” value is -0.199.

Turning to RRIRTRPPRLPRPRPRPHTAPRP, the “shrunken log2 fold change” value was -0.0446.

With RRIRPRPPRLPRPRPRPMQAPRP, the “shrunken log2 fold change” value is -0.0135.

Regarding RRIRNRPPRLPRPRPRPWQHPRP, the “shrunken log2 fold change” value turned out to be 0.178.

Turning to RRIRRRPPRLPRPRPRPFPGPRP, the “shrunken log2 fold change” value is -0.143.

Take RRIRWRPPRLPRPRPRPYFGPRP: the “shrunken log2 fold change” value was -0.168.

Take RRIRERPPRLPRPRPRPQPGPRP: the “shrunken log2 fold change” value came out at 0.0699.

In the case of RRIRKRPPRLPRPRPRPWDTPRP, the “shrunken log2 fold change” value is -0.00122.

On to RRIRCRPPRLPRPRPRPENRPRP, for which the “shrunken log2 fold change” value was -0.168.

Regarding RRIRRRPPRLPRPRPRPAFGPRP, the “shrunken log2 fold change” value was determined as 0.348.

On to RRIRNRPPRLPRPRPRPHFCPRP, for which the “shrunken log2 fold change” value is -0.144.

RRIRFRPPRLPRPRPRPKTAPRP: the “shrunken log2 fold change” value is 0.295.

Consider RRIRGRPPRLPRPRPRPTNFPRP, for which the “shrunken log2 fold change” value is -0.0941.

In the case of RRIRYRPPRLPRPRPRPRTNPRP, the “shrunken log2 fold change” value was -0.492.

As for RRIRYRPPRLPRPRPRPVPYPRP, the “shrunken log2 fold change” value is -0.0727.

On to RRIRKRPPRLPRPRPRPFVAPRP, for which the “shrunken log2 fold change” value came out at 0.115.

In the case of RRIRGRPPRLPRPRPRPDEKPRP, the “shrunken log2 fold change” value turned out to be 0.233.

Turning to RRIRGRPPRLPRPRPRPGGDPRP, the “shrunken log2 fold change” value was found to be 0.937.

Turning to RRIRKRPPRLPRPRPRPLLSPRP, the “shrunken log2 fold change” value is 0.523.

Take RRIRRRPPRLPRPRPRPVIDPRP: the “shrunken log2 fold change” value is -0.165.

For the sequence RRIRVRPPRLPRPRPRPHDAPRP, the “shrunken log2 fold change” value was -0.141.

With RRIRERPPRLPRPRPRPEKFPRP, the “shrunken log2 fold change” value is -0.287.

As for RRIRHRPPRLPRPRPRPNCTPRP, the “shrunken log2 fold change” value was -0.142.

As to RRIRTRPPRLPRPRPRPSYIPRP, the “shrunken log2 fold change” value is -0.511.

As to RRIRLRPPRLPRPRPRPQMGPRP, the “shrunken log2 fold change” value is -0.0175.

In the case of RRIRCRPPRLPRPRPRPRESPRP, the “shrunken log2 fold change” value amounted to 0.155.

With RRIRIRPPRLPRPRPRPVWGPRP, the “shrunken log2 fold change” value was found to be 0.0298.

Consider RRIRWRPPRLPRPRPRPIVTPRP, for which the “shrunken log2 fold change” value was 0.0938.

Turning to RRIRKRPPRLPRPRPRPYLIPRP, the “shrunken log2 fold change” value is -1.9.

Take RRIRGRPPRLPRPRPRPVLEPRP: the “shrunken log2 fold change” value turned out to be 0.795.

As to RRIRRRPPRLPRPRPRPEDSPRP, the “shrunken log2 fold change” value was determined as 0.0554.

As to RRIRGRPPRLPRPRPRPHNDPRP, the “shrunken log2 fold change” value is 0.0426.

For the sequence RRIRRRPPRLPRPRPRPVIVPRP, the “shrunken log2 fold change” value was -0.114.
